Measurements as given in patent publication US20170291954A1.

Assays:
GPC3-GST fusion protein [1] = assay: ELISA, GPC3-GST fusion protein as antigen at 1 ug/ml
GPC3-GST fusion protein [2] = assay: ELISA, GPC3-GST fusion protein as antigen at 0.5 ug/ml

GPC3-GST fusion protein, sequence (P51654 368-548): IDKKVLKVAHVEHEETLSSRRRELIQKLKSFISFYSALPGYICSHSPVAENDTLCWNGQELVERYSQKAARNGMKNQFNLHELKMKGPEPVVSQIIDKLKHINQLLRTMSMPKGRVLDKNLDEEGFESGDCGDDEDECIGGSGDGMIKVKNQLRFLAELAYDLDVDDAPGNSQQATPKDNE

EC50 (GPC3-GST fusion protein [1]): 43.1 nM
EC50 (GPC3-GST fusion protein [2]): 52 nM
B1: 4E5 scFv, secreted from yeast as a fusion protein and purified on nickel-HIS beads (scFv, part only; not given: linker and fusion partner, not shown: large carriers)
scFv, part: QVQLQQSGAELVRPGASVKLSCKASGYTFNDYEMHWVKQTPVHGLKWIGALEPKTGDTAYSQKFKGKATLTADKSSSTAYMELRSLTSEDSAVYYCTSCYYYTYSGQGTLVTVSADVVMTQTPLSLPVSLGDQASISCRSSQSLVHSNGNTYLHWYLQKPGQSPKLLIYKVSNRFSGVPDRFSGSGSGTDFTLKISRVEAEDLGVYFCSQNTPVPPKFGSGTKLEIK
